Source: publication PMC7430634, “Inactivation of the dimeric RappLS20 anti-repressor of the conjugation operon is mediated by peptide-induced tetramerization” (Nucleic Acids Research, 2020)
Each block holds one molecule with its values, some of them ahead of it.

Experiments:
[1] = target: Rco_(pLS20) (Bacillus subtilis plasmid pLS20); assay: SEC; Superdex 200 increase 5/150 GL, 500 mM NaCl, 20 mM TRIS pH 8, 0.2 ml/min; proteins alone (1 mg/ml) and mixtures at 1:2, 1:4, 1:1 and 2:1 (Rco:Rap) incubated 30 min on ice; total protein 0.75–1.25 mg/ml; Phr* at 5:1 over Rap where added
[2] = test system: PlcR; settings: SAXS, 2QFC, ref Declerck et al., 2007 (Suppl. ref 7); cited from earlier work
[3] = target: NprR; settings: NprR and its cognate peptide NprX; cited from earlier work
[4] = target: Rap_(pLS20) (Bacillus subtilis plasmid pLS20); assay: AUC; sedimentation equilibrium, apo Rap_(pLS20) at 4.5 to 25 μM; same conditions as the SV experiments; 7000 to 10 000 rpm
[5] = target: Rap_(pLS20) (Bacillus subtilis plasmid pLS20); assay: AUC; sedimentation equilibrium, Rap_(pLS20) (0–15 μM) with Phr*_(pLS20) at 1:3 stoichiometry (Rap:Phr*); same conditions as the SV experiments
[6] = target: Rap_(pLS20) (Bacillus subtilis plasmid pLS20); assay: SAXS; apo Rap_(pLS20) at 0.5 to 5 mg/ml (11.3–113 μM); 15 mM HEPES pH 7.5, 150 mM NaCl, 1 mM DTT; 293 K; volume fractions of dimer and foot-2-foot tetramer by OLIGOMER
[7] = target: Rap_(pLS20) (Bacillus subtilis plasmid pLS20); assay: AUC; sedimentation velocity, apo Rap_(pLS20) at 4.5 and 25 μM; 20 mM Tris, 250 mM NaCl, 10 mM MgCl2, 1 mM EDTA, 0.1 mM β-mercaptoethanol, 1% glycerol, pH 7.4; 48 000 rpm
[8] = target: Rap_(pLS20) (Bacillus subtilis plasmid pLS20); assay: AUC; sedimentation velocity, 4.5 μM Rap_(pLS20) with Phr*_(pLS20) at 4.5 μM or 15 μM; 20 mM Tris, 250 mM NaCl, 10 mM MgCl2, 1 mM EDTA, 0.1 mM β-mercaptoethanol, 1% glycerol, pH 7.4
[9] = target: Rap_(pLS20) (Bacillus subtilis plasmid pLS20); assay: SAXS; Rap_(pLS20) at 0.5 to 5 mg/ml with 5-fold molar Phr*_(pLS20); 15 mM HEPES pH 7.5, 150 mM NaCl, 1 mM DTT; 293 K; volume fractions of dimer and foot-2-foot tetramer by OLIGOMER
[10] = target: Rap_(pLS20) (Bacillus subtilis plasmid pLS20); assay: SEC; Superdex 200 increase 5/150 GL, 500 mM NaCl, 20 mM TRIS pH 8, 0.2 ml/min; proteins alone (1 mg/ml) and mixtures at 1:2, 1:4, 1:1 and 2:1 (Rco:Rap) incubated 30 min on ice; total protein 0.75–1.25 mg/ml; Phr* at 5:1 over Rap where added
[11] = target: PhrF* peptide (Bacillus subtilis) (UniProt P71001); settings: cited from earlier work
[12] = target: Rap_(pLS20) (Bacillus subtilis plasmid pLS20); assay: fluorescence polarisation; equilibrium competition: native Phr*_(pLS20) 0.6–1250 μM against 10 μM Rap_(pLS20) and 50 nM 6-FAM-Phr*_(pLS20); 20 mM Tris pH 7.5, 150 mM NaCl, 1 mM DTT, 0.01% Triton X-100; 25°C

Molecule: LPFEF [PapR]
oligomerization state of PlcR with peptide [2]: tetramers

Molecule: SSKPDIVG [NprX, cognate peptide of NprR, eight amino acids (SSKPDIVG)]
Kd [3]: 0.03 µM

Molecule: RapF (from UniProt P71002)
Kd [11]: 3.1 µM

Molecule: QKGMY [Phr*_(pLS20) peptide (QKGMY)]
IC50 [12]: 26.7 µM
Kd [12]: 7.42 µM

More lines, now with the values ahead:

stoichiometry N [1]: 4
Molecule: Rco_(pLS20) (natural protein)

stoichiometry N [4]: 2
stoichiometry N [5]: 4
dimer fraction at 0.5 mg/ml (11.3 μM) [6]: 0.78
dimer fraction at 5 mg/ml (0.11 mM) [6]: 0.48
tetramer fraction at 0.5 mg/ml (11.3 μM) [6]: 0.22
tetramer fraction at 5 mg/ml (0.11 mM) [6]: 0.52
percent as a single species (dimer) at 4.5 μM [7]: > 96%
percent tetramers at 4.5 μM [7]: 1.1%
percent tetramers at 25 μM [7]: 3.6%
stoichiometry N [7]: 2
stoichiometry N [8]: 4
percent tetramers above 2.5 mg/ml (57.7 μM) with Phr* (pLS20) [9]: 100%
percent tetramers at 0.5 mg/ml (11.3 μM) with Phr* (pLS20) [9]: 75%
stoichiometry N [10]: 2
Molecule: Rap_(pLS20) (natural protein)
